Target: T1, recombinant human Hsp90β (human, UniProt P08238 1-724)
T1 construct: Heat shock protein 90 beta (Hsp90β, constitutively expressed form, gene HSP90AB1), human, recombinant; Commercial protein; also called heat shock protein 90; purified Hsp90; source: bought: StressMarq (recombinant)
Test: co-sedimentation; Hsp90β mixed with C9 or BSA (1 µg each) in TBS, 1 h at 37 °C; sucrose density gradient (1–20% by text and methods, 10–30% by legend), 18 h ultracentrifugation, 4 °C; fractions dot blotted with anti-Hsp90β or anti-C9
Conditions: both partners purified

T1 sequence (P08238 whole entry): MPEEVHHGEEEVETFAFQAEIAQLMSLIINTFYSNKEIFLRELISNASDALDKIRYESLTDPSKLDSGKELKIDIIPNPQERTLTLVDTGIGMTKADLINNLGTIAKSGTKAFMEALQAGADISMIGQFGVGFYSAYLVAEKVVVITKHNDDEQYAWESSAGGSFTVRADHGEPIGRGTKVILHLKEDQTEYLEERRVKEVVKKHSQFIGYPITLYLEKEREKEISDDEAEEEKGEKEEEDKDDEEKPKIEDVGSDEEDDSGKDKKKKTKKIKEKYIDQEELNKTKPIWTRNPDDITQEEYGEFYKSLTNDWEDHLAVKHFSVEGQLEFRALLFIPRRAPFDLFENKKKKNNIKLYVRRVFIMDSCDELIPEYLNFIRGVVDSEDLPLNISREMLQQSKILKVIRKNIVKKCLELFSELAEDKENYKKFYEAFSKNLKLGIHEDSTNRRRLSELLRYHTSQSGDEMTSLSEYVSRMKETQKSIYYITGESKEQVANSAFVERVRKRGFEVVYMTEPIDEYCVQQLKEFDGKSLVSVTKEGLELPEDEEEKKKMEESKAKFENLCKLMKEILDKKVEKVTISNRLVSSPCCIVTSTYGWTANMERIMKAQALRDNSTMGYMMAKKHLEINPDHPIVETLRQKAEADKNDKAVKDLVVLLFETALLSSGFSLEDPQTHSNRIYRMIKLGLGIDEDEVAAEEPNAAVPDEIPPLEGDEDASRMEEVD

B1: purified human C9 (natural protein)
chain: not shown
notes: Complement component C9, human, purified; also called complement C9; complement protein C9; source: bought: Complement Technology Inc. (purified human C9)
binding result: binds
